Columns and labels:
[1] = molecular target: PhoP-HA protein, purified (Salmonella enterica serovar Typhimurium (strain 14028s)) (UniProt D0ZV90); test: pull-down
[2] = molecular target: T1, PhoP-HA protein, purified (Salmonella enterica serovar Typhimurium …, UniProt D0ZV90 1-224); test: pull-down
T1 sequence: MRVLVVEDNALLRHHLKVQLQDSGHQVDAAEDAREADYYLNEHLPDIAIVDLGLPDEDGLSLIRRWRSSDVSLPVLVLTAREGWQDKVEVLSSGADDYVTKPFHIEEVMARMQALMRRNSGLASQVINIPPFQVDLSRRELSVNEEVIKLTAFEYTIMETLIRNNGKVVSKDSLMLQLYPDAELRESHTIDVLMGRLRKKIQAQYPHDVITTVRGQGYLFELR

“ClpS-FLAG, in vitro synthesized (natural protein)” was tested, and the IC50 [1] was 14.6 µM.

B1: MgtC-FLAG, in vitro synthesized (natural protein)
chain: MEERMLMFPYILNLLAAMLLGALIGAERQWRQRMAGLRTNALVATGAAVFILSSMTTSPDSPGRIAAQIVSGIGFLGAGVIMREGMNVRGLNTAATLWCSAGIGVLCGLGQFKNALAATIIILCANILLREAAQRINQLPISAEGEKRYILKVTCNKEDESAVRQWLLNIVKEAAICLQGLGSVPAQEQGYKEIRAELVGHADYRKTRELIISRIGDNDNITAIHWSIDSQ
For B1, the IC50 [2] was 8.4 µM.

Reference: article PMC5424706 (Molecular cell, 2017)
